Experimental data as given in patent publication US20250059275A1 (SHANGHAI NIGENE BIOLOGICAL SCIENCE AND TECHNOLOGY, published 2025).
Substitutions are numbered along the chain they refer to.

T1: human TIGIT expressed on CHO-K1 cells (CHO-huTIGIT) (human, UniProt Q495A1 22-244)
T1 construct: whole, on cells; also called CHO-huTIGIT-eGFP; human TIGIT-expressing CHO cells
T1 sequence (looked up): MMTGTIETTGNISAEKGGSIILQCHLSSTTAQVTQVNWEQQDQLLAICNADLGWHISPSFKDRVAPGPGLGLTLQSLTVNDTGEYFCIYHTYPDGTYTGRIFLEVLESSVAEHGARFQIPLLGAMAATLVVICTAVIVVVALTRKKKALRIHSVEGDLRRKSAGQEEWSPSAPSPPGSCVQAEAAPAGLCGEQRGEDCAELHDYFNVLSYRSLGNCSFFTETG

T2: human TIGIT-HIS (Biointron, BI120) (human, UniProt Q495A1 22-141, limits assumed)
T2 construct: also called recombinant huTIGIT protein; recombinant human TIGIT protein; not shown: His tag
T2 sequence (looked up): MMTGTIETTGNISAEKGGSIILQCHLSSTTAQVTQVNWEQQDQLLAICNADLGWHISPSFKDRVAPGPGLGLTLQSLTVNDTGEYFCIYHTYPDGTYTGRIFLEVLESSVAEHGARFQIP

B1: JHH4A042-H3 (antibody, V domains shown)
VH: QVQLQQSGPGLVKPSQTLSLTCAISGDSVSSNSAAWNWIRQSPSRGLEWLGRTYFRSKWYNDYAVSVKSRITINPDTSKNQFSLQLNSMTPEDTAVYYCARERALYDILAGSFDYWGQGTLVTVSS
VL: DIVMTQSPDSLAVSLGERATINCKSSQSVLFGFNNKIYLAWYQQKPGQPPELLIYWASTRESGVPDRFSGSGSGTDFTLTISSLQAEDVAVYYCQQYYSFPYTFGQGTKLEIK
B2: JHH4A042-H7 (antibody, V domains shown)
VH: B1 VH with A35V, F55Y
VL: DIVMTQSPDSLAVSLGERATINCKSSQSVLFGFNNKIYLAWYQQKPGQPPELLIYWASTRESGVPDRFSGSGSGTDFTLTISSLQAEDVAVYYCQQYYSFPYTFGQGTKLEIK
B3: JHH4B037a (antibody, V domains shown)
VH: EVQLVESGGGLVQPGRSLRLSCEASGFSFDDYAMHWVRQAPGKGLEWVSGISWNSVTIGYADSVKGRFTISRDNAKNSLYLEMNSLRTEDTALYYCAKELPTYRYYALDGWGQGTAVTVSS
VL: not shown
B4: JHH4B056a (antibody, V domains shown)
VH: EVQLVESGGGLVQPGRSLRLSCAASGFTFDDYAMHWVRQAPGKGLEWVSGISWNGIGIGYADSVKGRFTISRDNAKNSLYLQMNSLRAEDTALYYCAKDGGDYHYYGMDVWGQGTTVTVSS
VL: not shown
B5: JHH4A063 (antibody, V domains shown)
VH: B4 VH with A23T, T28N, A33G, G55S, G57S, Y60S, A88P, Y103H, H104Y
VL: DIMMTQSPLSLPVTPGEPASISCRSSQSLLHSNGYKYLNWYLQKPGQSPLLLIYLGSNRASGVPDRFSGSGSGTDFTLKISRVEAEDVGVYYCMQALQTPLTFGGGTKVEIK
notes: also called 4A063-hIgG1
B6: JHH4A057 (antibody, V domains shown)
VH: QVQLVQSGSELKKPGASVKVSCKASGYTLTSHALNWVRQAPGQGLEWMGWINTNTGNPTYVQGFTGRFVFSLDTSVSTAYLQISSLKAEDTAVYYCARGYSSPPRMDVWGQGTTVTVSS
VL: EIVLTQSPGTLFLSPGERATLSCRASQSVSRNYLVWYQQKPGQAPRLLIYGASTRATGIPDRFSGSGSGTDFTLTIRRLEPEDFALYYCQQYGSSPFTFGQGTKLEIN
B7: JHH1B2-8C (antibody, V domains shown)
VH: QVQLQQSGPGLVKPSQTLSLTCAISGDSVSSNSAAWNWIRQSPSRGLEWLGRTYYRSKWYNDYAVSVKSRITINPDTSKNQFSLQLNSVTPEDTAVYYCAREGVLRYFDWLSGAFDIWGQGTMVTVSS
VL: not shown
B8: JHH4B030a (antibody, V domains shown)
VH: QVQLQQSGPGLVKPSQTLSLTCAISGDSVSSNSAAWNWIRQSPSRGLEWLGRTYYRSKWYNDYAVSVKSRITINPDTSKNQFSLQLNSVTPEDTAVYYCARERGTYYDILTGDFDYWGQGTLVTVSS
VL: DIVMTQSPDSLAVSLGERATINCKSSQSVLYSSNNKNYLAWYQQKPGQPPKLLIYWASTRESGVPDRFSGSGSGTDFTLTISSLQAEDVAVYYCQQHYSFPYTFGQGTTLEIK
B9: JHH4D035a (antibody, V domains shown)
VH: B4 VH with Y32F, Y95F, G100K, D102L, Y103R, H104R, T115I, T118I
VL: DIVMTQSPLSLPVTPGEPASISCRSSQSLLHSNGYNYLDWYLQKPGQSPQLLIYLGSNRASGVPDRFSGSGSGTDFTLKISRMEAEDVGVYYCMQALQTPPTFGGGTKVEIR
notes: Fully human antibody from TC-mAb mice
B10: JHH4E061a (antibody, V domains shown)
VH: B4 VH with V12I, R19T, A23V, Y80I, A88I, G100K, D102L, Y103R, H104R
VL: B5 VL with D1E, M3V, Q27R, K36N, N39D, L50Q, S81N, L101P
notes: as for B9

target: T1, human TIGIT expressed on CHO-K1 cells …; assay: flow cytometry competition on CHO-huTIGIT-eGFP cells; competitor biotinylated human CD155-Fc
Description: (§1) CHO-huTIGIT-eGFP cells were implanted in V-bottom 96 well plates. The antibodies of Example 2 and reference antibodies were diluted to different concentrations respectively and added (100 μL/well) to the 96 well plate covered with cells (100%)), incubated at 4° C. for 1 hour.
(§2) Washed the cells by adding 200 μL/well washing buffer, and centrifuged at 1600 rpm (˜260×g), 4° C. for 3 minutes, and discarded the supernatant, repeated twice. […] (on ice) for 1 hour. Add 30 μL washing buffer contains streptavidin-594 (f.c.=10 μg/ml) into the well, then the cells were incubated at 4° C. for 30 minutes. Wash once and transfer the cells to a flat bottom 96 well plate, and analyze the cells with CytoFLEX S. Take the logarithm of antibody concentration (μg/mL) with the base of 10 as the abscissa and the intermediate fluorescence value corresponding to each antibody concentration as the ordinate.

Binder | IC50
B1 | 0.8 µg/mL
B2 | 0.973 µg/mL
B3 | 0.79 µg/mL
B4 | 1 µg/mL
B5 | 0.559 µg/mL
B6 | 0.899 µg/mL
B7 | 1.18 µg/mL
B8 | 0.777 µg/mL

target: T3, cynomolgus monkey TIGIT expressed on CHO-K1 cells (CHO-mkTIGIT) (cynomolgus monkey, UniProt A0A7N9I9V4 89-312); assay: flow cytometry on CHO-mkTIGIT cells, anti-human IgG secondary antibody
T3 construct: whole, on cells
T3 sequence (A0A7N9I9V4 entry or part of it): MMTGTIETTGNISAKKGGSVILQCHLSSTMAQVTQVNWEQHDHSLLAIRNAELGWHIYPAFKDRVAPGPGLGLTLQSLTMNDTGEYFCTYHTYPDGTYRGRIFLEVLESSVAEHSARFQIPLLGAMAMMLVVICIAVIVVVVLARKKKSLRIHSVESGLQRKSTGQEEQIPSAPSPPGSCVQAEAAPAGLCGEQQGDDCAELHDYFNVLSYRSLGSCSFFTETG
Description: (§3) CHO-huTIGIT cells or CHO-mkTIGIT cells were implanted in 96 well plates. The antibodies of Example 2 were diluted to different concentrations respectively and added to 96 well plates covered with cells (100 μL/well), incubated at 4° C. (on ice) for 1 hour.
(§4) Washed the cells by adding 200 μL/well washing buffer, and centrifuged at 1600 rpm (˜260×g), 4° C. for 3 minutes, and discarded the supernatant, repeated twice. Add 30 μL washing buffer containing anti-human IgG secondary antibody (Jackson ImmunoResearch, #109-585-190, Alexa Fluor® 594 AffiniPure Goat Anti-Human IgG, Fcγ fragment specific) to each well, cultured cells at 4° C. (on ice) for 1 hour. Washing twice, transferred the cells to a flat bottom 96 well plate, and analyze the cells with CytoFLEX S. The antibody concentration was plotted with the logarithm of 10 as the abscissa and the median fluorescence value of two channels as the ordinate. The EC₅₀ (CHO-huTIGIT and CHO-mkTIGIT) and the peak value of the curve were compared.

Binder | EC50 (read off the curve)
B1 | ~1 µg/mL
B3 | ~0.005 µg/mL
B4 | ~0.009 µg/mL
B5 | ~0.004 µg/mL
B6 | ~0.009 µg/mL

target: T1, human TIGIT expressed on CHO-K1 cells …; assay: flow cytometry blocking assay on CHO-huTIGIT-eGFP cells; blocked ligand: biotinylated human CD155-Fc
Description: as §1, §2

Binder | IC50 (read off the curve)
B1 | ~0.8 µg/mL
B2 | ~1 µg/mL
B3 | ~0.8 µg/mL
B4 | ~1 µg/mL
B5 | ~0.5 µg/mL
B6 | ~0.9 µg/mL
B7 | ~1 µg/mL
B8 | ~0.8 µg/mL

target: T2, human TIGIT-HIS (Biointron, BI120); assay: Octet BLI tandem epitope competition, TIGIT-HIS loaded on the sensor, first antibody step

Binder | binding result
B9 | binds
B10 | binds

target: T1, human TIGIT expressed on CHO-K1 cells …; assay: flow cytometry on CHO-huTIGIT cells, anti-human IgG Fc Alexa Fluor 594
Description: as §3, §4

Binder | EC50
B1 | 0.00463 µg/mL
B2 | 0.00602 µg/mL
B3 | 0.00388 µg/mL
B4 | 0.00459 µg/mL
B5 | 0.00349 µg/mL
B6 | 0.00412 µg/mL
B7 | 0.00549 µg/mL
B8 | 0.0043 µg/mL

target: T3, cynomolgus monkey TIGIT expressed on …; assay: flow cytometry on CHO-mkTIGIT cells, anti-human IgG Fc Alexa Fluor 594
Description: as §3, §4

Binder | EC50
B1 | 0.0792 µg/mL
B2 | 0.605 µg/mL
B3 | 0.00532 µg/mL
B4 | 0.00958 µg/mL
B5 | 0.00425 µg/mL
B6 | 0.00887 µg/mL
B8 | 0.857 µg/mL
